Source: patent publication US20230025129A1 (KYMAB, published 2023)
Where a chain is given by its changes, count along the chain named. Numbers in names are those of the source. Values belong to the binder of their own block, whether it stands above or below them.

Legend:
[1] = molecular target: T1, cyno matriptase-2 ECD protein his tag (cynomolgus, UniProt Q8IU80 84-811 (human entry)); assay: SPR, his-tagged MTP-2 ECD protein (Table W)
T1 construct: aa 73-800 of A0A2K5VAP0 with C-terminal linker and His tag; also called cynomolgus MTP-2 ECD
T1 chain: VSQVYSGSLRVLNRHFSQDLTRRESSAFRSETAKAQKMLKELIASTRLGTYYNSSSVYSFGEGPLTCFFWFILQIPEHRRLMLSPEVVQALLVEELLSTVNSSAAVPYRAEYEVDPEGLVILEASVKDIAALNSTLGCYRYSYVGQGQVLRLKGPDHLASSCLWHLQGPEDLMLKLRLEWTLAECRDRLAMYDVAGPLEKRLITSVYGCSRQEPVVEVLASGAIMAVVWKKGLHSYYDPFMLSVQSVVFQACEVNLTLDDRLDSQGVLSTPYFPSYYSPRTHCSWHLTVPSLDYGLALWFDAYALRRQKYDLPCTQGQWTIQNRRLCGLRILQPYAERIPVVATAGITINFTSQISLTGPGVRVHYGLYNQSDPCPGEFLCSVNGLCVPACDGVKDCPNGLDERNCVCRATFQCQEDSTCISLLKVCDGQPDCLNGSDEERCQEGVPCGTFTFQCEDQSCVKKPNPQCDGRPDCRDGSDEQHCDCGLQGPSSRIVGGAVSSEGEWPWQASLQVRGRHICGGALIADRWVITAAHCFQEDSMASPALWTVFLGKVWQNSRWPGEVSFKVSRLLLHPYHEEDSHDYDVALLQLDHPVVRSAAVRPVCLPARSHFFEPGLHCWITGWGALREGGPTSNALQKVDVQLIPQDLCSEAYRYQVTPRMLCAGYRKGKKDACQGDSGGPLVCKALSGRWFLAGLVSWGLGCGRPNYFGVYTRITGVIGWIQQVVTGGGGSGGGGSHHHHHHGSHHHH
Protocol: (§1) Off-rate screening was performed by surface plasmon resonance (SPR), using a Biacore 8K system (GE Healthcare). Anti-human Fc mix (˜1000 RU) were immobilised in both active and reference channels in HBS-P+ buffer (GE BR100671) pH 7.4. Anti-MTP-2 hulgG4PE antibodies were then captured for 60 sec at 10 μl/min at 1 μg/ml concentration (approximatively 35 and 50 RU were captured) only on the active channel. MTP-2 ECD protein analytes were then injected (at 100, 25, 6.25, 1.56 and 0 nM concentrations) for 120 sec (association time) at 30 μl/min and dissociation monitored for 600 sec. Multiple cycle kinetics mode was used with all 8 channels being used. Reference and background were subtracted from the sensorgrams for each antibody and data was fitted using a 1:1 interaction model in the Biacore evaluation software. Rmax, ka, kd globally fitted, RI=0.
(§2) NORI-011, NORI-008, NORI-003 and NORI-006 were all found to have cross-reactive binding to human, mouse, cyno and rat MTP-2 ECD proteins. […] The true KD value for NORI-008 could not be measured accurately for human or mouse MTP-2 due to a very slow off-rate.

[2] = molecular target: T2, rat matriptase-2 ECD protein his tag (rat, UniProt Q9DBI0 80-811 (mouse entry)); assay: SPR, his-tagged MTP-2 ECD protein (Table W)
T2 construct: aa 80-811 of NCBI XP_006242057.1 with C-terminal linker and His tag; also called rat MTP-2 ECD
T2 chain: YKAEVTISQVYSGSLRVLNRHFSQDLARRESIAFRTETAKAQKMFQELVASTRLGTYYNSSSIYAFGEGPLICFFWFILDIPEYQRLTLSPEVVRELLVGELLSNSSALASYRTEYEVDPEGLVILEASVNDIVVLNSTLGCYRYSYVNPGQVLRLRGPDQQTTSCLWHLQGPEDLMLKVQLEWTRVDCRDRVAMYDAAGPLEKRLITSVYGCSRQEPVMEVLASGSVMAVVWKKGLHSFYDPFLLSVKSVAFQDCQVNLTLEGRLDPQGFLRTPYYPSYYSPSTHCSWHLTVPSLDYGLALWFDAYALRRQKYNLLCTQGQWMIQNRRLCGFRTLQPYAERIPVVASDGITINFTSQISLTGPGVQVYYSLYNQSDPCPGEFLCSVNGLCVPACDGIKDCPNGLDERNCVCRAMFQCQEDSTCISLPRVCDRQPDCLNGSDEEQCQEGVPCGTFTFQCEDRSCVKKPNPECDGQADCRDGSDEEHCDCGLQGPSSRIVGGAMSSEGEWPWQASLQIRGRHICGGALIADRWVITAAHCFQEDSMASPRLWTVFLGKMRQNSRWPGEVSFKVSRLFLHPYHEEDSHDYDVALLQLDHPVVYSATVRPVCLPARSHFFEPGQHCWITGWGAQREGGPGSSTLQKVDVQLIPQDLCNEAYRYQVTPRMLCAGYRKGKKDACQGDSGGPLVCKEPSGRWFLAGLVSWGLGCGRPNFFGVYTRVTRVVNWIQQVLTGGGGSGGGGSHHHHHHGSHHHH
Protocol: as §1, §2

[3] = molecular target: T3, human MTP-2 expressed on HEK293 cells (human, UniProt Q8IU80 1-811); assay: cell-based or functional assay
T3 sequence: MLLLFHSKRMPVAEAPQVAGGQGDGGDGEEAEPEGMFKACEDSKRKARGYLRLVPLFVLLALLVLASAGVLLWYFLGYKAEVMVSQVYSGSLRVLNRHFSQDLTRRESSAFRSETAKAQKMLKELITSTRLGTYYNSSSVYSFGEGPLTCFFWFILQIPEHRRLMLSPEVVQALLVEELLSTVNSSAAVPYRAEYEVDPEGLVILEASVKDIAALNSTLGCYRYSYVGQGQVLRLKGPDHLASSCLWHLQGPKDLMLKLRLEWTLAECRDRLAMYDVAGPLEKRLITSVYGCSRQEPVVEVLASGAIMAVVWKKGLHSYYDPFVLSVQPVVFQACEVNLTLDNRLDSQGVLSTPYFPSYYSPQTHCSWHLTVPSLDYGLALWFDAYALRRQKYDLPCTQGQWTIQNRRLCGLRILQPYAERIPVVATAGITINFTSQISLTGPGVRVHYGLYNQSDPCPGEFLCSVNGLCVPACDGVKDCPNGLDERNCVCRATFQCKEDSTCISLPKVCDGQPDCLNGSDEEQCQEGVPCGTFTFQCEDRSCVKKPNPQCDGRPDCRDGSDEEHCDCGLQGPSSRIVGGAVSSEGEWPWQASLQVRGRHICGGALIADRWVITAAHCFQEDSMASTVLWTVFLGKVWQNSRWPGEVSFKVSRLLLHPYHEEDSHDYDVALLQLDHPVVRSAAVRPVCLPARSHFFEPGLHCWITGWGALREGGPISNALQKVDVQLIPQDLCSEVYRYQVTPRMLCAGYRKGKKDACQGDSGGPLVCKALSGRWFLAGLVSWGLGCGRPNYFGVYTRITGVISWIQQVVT

Kd [1]: 2.17 nM
Kd [2]: 3.01 nM
B3: NORI-011 (antibody, human IgG4 S228P, lambda)
heavy: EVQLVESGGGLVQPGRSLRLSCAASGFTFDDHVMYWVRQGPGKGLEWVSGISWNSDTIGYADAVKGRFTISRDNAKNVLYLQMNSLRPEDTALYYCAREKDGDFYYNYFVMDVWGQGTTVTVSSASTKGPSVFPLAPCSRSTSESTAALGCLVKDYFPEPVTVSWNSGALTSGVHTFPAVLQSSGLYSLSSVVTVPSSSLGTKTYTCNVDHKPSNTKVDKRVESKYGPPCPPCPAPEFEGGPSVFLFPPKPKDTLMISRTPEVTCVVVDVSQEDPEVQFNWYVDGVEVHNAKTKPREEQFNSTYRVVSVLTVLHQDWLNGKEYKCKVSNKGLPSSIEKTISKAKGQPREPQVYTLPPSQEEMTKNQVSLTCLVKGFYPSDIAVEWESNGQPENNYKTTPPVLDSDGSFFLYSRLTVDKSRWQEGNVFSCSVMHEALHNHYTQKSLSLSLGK
light: QSALTQPPSASGSPGQSVTISCTGTSSDVGFYNFVSWYQQHPDKAPKVMIYEVSKRPSGVPDRFSGSKSGNTASLTVSGLQAEDEADYYCSSYAGSNKVVFGGGTKLTVLGQPKAAPSVTLFPPSSEELQANKATLVCLISDFYPGAVTVAWKADSSPVKAGVETTTPSKQSNNKYAASSYLSLTPEQWKSHRSYSCQVTHEGSTVEKTVAPTECS
notes: human IgG4PE, lambda; NORI-010 with a P124S mutation in the VH domain

Inhibition enzymatic activity human MTP2 on cells (IC50) [3]: 0.532 nM
B6: NORI-014 (antibody, human IgG4 S228P, lambda, V domains shown)
VH: EVQLVESGGGLIQAGRSLRLSCAASGFTFDEHVMYWVRQIPGKGLEWISSITWKSDIIAYADSVKGRFTISRDNAKNALYLQMNSLRAEDTALYYCAREKDGDFYYYYFAMDVWGQGTTVTVSS
VL: QSALTQPPSASGSPGQSVTLSCTGTSSDVGYYNYVSWYLQHPGKAPKLMIYEVSKRPSGVPDRFSGSKSANTASLTVSGLQAEDEADYYCSSYAGSNKVVFGGGTKVTVLG
notes: human IgG4PE, lambda

Continued, binder first:

B1: NORI-006 (antibody, human IgG4 S228P, kappa, V domains shown)
VH: EVQLVESGGGLIKPGRSLRLSCTGSGFTFGDFGLSWFRQAPGKGLEWISFIRSKPYGGTTDYAASVKGRFTISRDDSKNVAYLQMNSLKTEDTAVYYCARNEILTGYYIFDYWGQGTLVTVSS
VL: DIQMTQSPSSLSASLGDRVTITCQASQDINNYLNWYQVQPGKAPKLLIFDASILETGVPSRFSGSGSGTDFSFTISSLQPEDIATYYCQQYDNLPLTFGGGTKVDFKR
notes: human IgG4PE, kappa
Kd [1]: 0.824 nM
Kd [2]: 15.2 nM

B2: NORI-003 (antibody, human IgG4 S228P, kappa, V domains shown)
VH: EVQLVESGGGLVKPGRSLRLSCTGSGFTFGDFGMSWFRQAPGKGLEWVGFIRSKPYGGTTDYAPSVRGRFSISRDDSKGIVYLQMNSLRTEDTAVYYCSRNEILTGYYIFDYWGQGTLVTVSS
VL: B1 VL with Q27H, N30T, N34I, V38Q, Q39K, K45R, S72T, I83F, D92Y, F106I
notes: human IgG4PE, kappa; NORI-002 with the free cysteine of the VH domain mutated (printed as 'C49C')
Kd [1]: 1.76 nM
Kd [2]: 19.2 nM

B4: NORI-008 (antibody, human IgG4 S228P, kappa, V domains shown)
VH: QVQLQESGPGLVKPSETLSLTCSVSGGSVSSGRYYWTWIRQPPGKGLEWIGYISNSGNTNYNPSLKSRVTISLDTSKKQFSLSLSAVTAADTAVYYCARGFIYDYWFDPWGQGSLVTVSS
VL: DSQMTQSPSSLSASVGDRVTITCQASQDIDNYLNWYQQRPGKAPKLLIYDASKLETGVPSRFSGSGSGTDFTFTISSLQPEDFATYYCQQYGNLPITFGQGTRLDIKR
notes: human IgG4PE, kappa, in the in vitro assays; a mouse IgG1 format was used in one in vivo study only; also called NORI-008 hulgG4PE; NORI-008 IgG
Inhibition enzymatic activity human MTP2 on cells (IC50) [3]: 0.0839 nM
Kd [1]: 0.0104 nM
Kd [2]: 7.64 nM

B5: NORI-013 (antibody, human IgG4 S228P, lambda, V domains shown)
VH: B6 VH with M34I, T52S
VL: B6 VL
notes: human IgG4PE, lambda
Inhibition enzymatic activity human MTP2 on cells (IC50) [3]: 0.619 nM
